Here are results for 9 sequences from the DeepSol protein solubility set.

The data set can be described thus: soluble on expression in E. coli; label from the status in PepcDB or PDB records.
With “SRLFDEVVKKELDEAALKGVILTDGELKPEEFSMHIAEQLRAGGPFGQAFPEPIFDGEFKVLHQKLVGEKHLKLMLEPLYKGHPTNVMIDGIAFNVDLRRWPDASVKTVRLAYKLDVNEFRGNQSLQLMIDHIEAK”, the “soluble on expression in E. coli” value was “not soluble”.

As to “SRLITHNMLSCNIKGVTSGFPLRIEAGNVIEKEVDFNPDFIRHMFAKIEWKALVEGARSMGYAELPEESPDAAVLKSDEPFLKKLHHALLELHLEEGALVCPETGRKFPVNKGIPNMLLHEDEV”, the “soluble on expression in E. coli” value is “soluble”.

For the sequence “SRRRPLSCDAASQAGSNYPRCWNCGGPWGPGREDRFFCPQCRALQAPDPTRDYFSLMDCNRSFRVDTAKLQHRYQQLQRLVHPDFFSQRSQTEKDFSEKHSTLVNDAYKTLLAPLSRGLYLLKLHGIEIPERTDYEMDRQFLIEIMEINEKLAEAESEAAMKEIESIVKAKQKEFTDNVSSAFEQDDFEEAKEILTKMRYFSNIEEKIKLKKIPL”, the “soluble on expression in E. coli” value is on record as “soluble”.

For the sequence “SSPSSPADWAKKLTDAVLRQKAGETLTAADRDFSNADFRNITFSKILPPSFMERDGDIIKGFNFSNSKFTYSDISHLHFDECRFTYSTLSDVVCSNTKFSNSDMNEVFLQYSITTQQQPSFIDTTLKNTLIRHKANLSGVILNEPDNSSPPSVSGGGNFIRLGDIWLQMPLLWTENAVDGFLNHEHNNGKSILMTIDSLPDKYSQEKVQAMEDLVKSLRGGRLTEACIRPVESSLVSVLAHPPYTQSALISEWLGPVQERFFAHQCQTYNDVPLPAPDTYYQQRILPVLLDSFDRNSAAMTTHSGLFNQVILHCMTGVDCTDGTRQKAAALYEQYLAHPAVSPHIHNGLFGNYDGSPDWTTRAADNFLLLSSQDSDTAMMLSTDTLLTMLNPTPDTAWDNFYLLRAGENVSTAQISPVELFRHDFPVFLAAFNQQATQRRFGELIDIILSTEEHGELNQQFLAATNQKHSTVKLIDDASVSRLATIFDPLLPEGKLSPAHYQHILSAYHLTDATPQKQAETLFCLSTAFARYSSSAIFGTEHDSPPALRGYAEALMQKAWELSPAIFPSSEQFTEWSDRFHGLHGAFTCTSVVADSMQRHARKYFPSVLSSILPLAWA”, the “soluble on expression in E. coli” value is “soluble”.

Turning to “SSQQIYGVKYGNVTFHVPSNQPLKEVLWKKQKDKVAELENSEFRAFSSFKNRVYLDTKSGSLTIYNLTSSDEDEYEMESPNITDSMKFFLYVGES”, the “soluble on expression in E. coli” value is listed as “soluble”.

For the sequence “SSRSGTDPQQRQQASEADAAAATFRANDHQHIRYNPLQDEWVLVSAHRMKRPWQGQVEPQLLKTVPRHDPLNPLCPGAIRANGEVNPQYDSTFLFDNDFPALQPDAPSPGPSDHPLFQAKSARGVCKVMCFHPWSDVTLPLMSVPEIRAVVDAWASVTEELGAQYPWVQIFENKGAMMGCSNPHPHCQVWASSFLPDIAQREERSQQAYKSQHGEPLLMEYSRQELLRKERLVLTSEHWLVLVPFWATWPYQTLLLPRRHVRRLPELTPAERDDLASIMKKLLTKYDNLFETSFPYSMGWHGAPTGSEAGANWDHWQLHAHYYPPLLRSATVRKFMVGYEMLAQAQRDLTPEQAAERLRALPEVHYHLGQKDRETATIA”, the “soluble on expression in E. coli” value is “not soluble”.

On to “SSVLRSMDKLPDLNRATVLLVSTEDALLQQLAESMLKDDCASELRVHLANSLPLPSNVNRPRIDLIVFVINLHSKYSLQKVEEFLQHVDSSFFLGKVCFLVTGAGQESHCSVHQNTVIKLAHTYRSPLFLCDLQKVESFRAAMARRLVRILQICAGHVPGVSALNLMSLLRSPENPPSKEL”, for which the “soluble on expression in E. coli” value is “soluble”.

As for “STKTNVVEVLNKQVANWNVLYVKLHNYHWYVTGPHFFTLHEKFEEFYNEAGTYIDELAERILALEGKPLATMKEYLATSSVNEGTSKESAEEMVQTLVNDYSALIQELKEGMEVAGEAGDATSADMLLAIHTTLEQHVWMLSAFLK”, the “soluble on expression in E. coli” value is listed as “soluble”.

With “STRPVGGTEYSWCRAIDGGTGIAVIALLLSRTPKLQNLQNTLDKLQIYHPTLRSNIRFDASANSFSFVVTSAADSHVEIHPFDSVSTAQIIRDSDDPCADPHRIILEHEMNKNTWINPHRWIKSESRVFIVSLYDLTDDGEQRILTFRLNTAAVDRTAAVTLLREFMKETAADGFGNGPVVAATETAVGLGKAIEELIPSGKGDKPFWARGIDVLGYSLNAFRFSNLNFVDAENSNRRSQLVRLKLDRDQTLKLVAGCKARGLKLWAALASSALIAAYSSKNLPPYQGEKYAVVTLSDCRSILEPPLTSNDFGFYHAGILHTHDLTGEEKLWDLAKRCYDSFTSSKNSNKQFTDMSDLNFLMCKAIENPNLTPSSSLRTAFISIFEDPVIDESPEPELASLGVQDYIGCASIHGVGPSVAVFDALRDGKLDCAFVYPSPLHSREQMDGLIQHMKTILLEGSASSF”, the “soluble on expression in E. coli” value is “soluble”.
